B1: His-SUMO-hnRNPDL isoform 2 D259N (natural protein, human)
chain: MEDMNEYSNIEEFAEGSKINASKNQQDDGKMFIGGLSWDTSKKDLTEYLSRFGEVVDCTIKTDPVTGRSRGFGFVLFKDAASVDKVLELKEHKLDGKLIDPKRAKALKGKEPPKKVFVGGLSPDTSEEQIKEYFGAFGEIENIELPMDTKTNERRGFCFITYTDEEPVKKLLESRYHQIGSGKCEIKVAQPKEVYRQQQQQQKGGRGAAAGGRGGTRGRGRGQGQNWNQGFNNYYDQGYGNYNSAYGGDQNYSGYGGYNYTGYNYGNYGYGQGYADYSGQQSTYGKASRGGGNHQNNYQPY
B2: His-SUMO-hnRNPDL isoform 2 D259H (natural protein, human)
chain: MEDMNEYSNIEEFAEGSKINASKNQQDDGKMFIGGLSWDTSKKDLTEYLSRFGEVVDCTIKTDPVTGRSRGFGFVLFKDAASVDKVLELKEHKLDGKLIDPKRAKALKGKEPPKKVFVGGLSPDTSEEQIKEYFGAFGEIENIELPMDTKTNERRGFCFITYTDEEPVKKLLESRYHQIGSGKCEIKVAQPKEVYRQQQQQQKGGRGAAAGGRGGTRGRGRGQGQNWNQGFNNYYDQGYGNYNSAYGGDQNYSGYGGYHYTGYNYGNYGYGQGYADYSGQQSTYGKASRGGGNHQNNYQPY

Biological target: the molecule itself
Experiment: amyloid aggregation

Protein | binding result
B1 | binds
B2 | binds

From article PMC6996132 (Cell Reports, 2020)
